From patent publication US20230065562A1, “DUAL CONTROLS FOR THERAPEUTIC CELL ACTIVATION OR ELIMINATION” (Bellicum Pharmaceuticals, Inc., priority 2015, published 2023) come the findings set out here.

What all share (type): cell-based, human
In data set [1] the test system is iCasp9M-transduced EBV-CTLs. Nature of the data set: CID-induced apoptosis / loss of GFP+ cells in iCasp9M-transduced EBV-CTLs. Conditions: 100 μM for 1 hour prior to adding CID. The procedure: CID (AP20187; ARIAD Pharmaceuticals) at indicated concentrations was added to transfected 293T cells or transduced CTLs. Adherent and nonadherent cells were harvested and washed with annexin binding buffer (BD Pharmingen, San Jose, Calif.). Cells were stained with annexin-V and 7-amino-actinomycin D (7-AAD) for 15 minutes according to the manufacturer's instructions (BD Pharmingen). Within 1 hour after staining, cells were analyzed by flow cytometry using CellQuest software (Becton Dickinson).
Inducible iCasp9M proficiency in CTLs was tested by monitoring loss of GFP-expressing cells after administration of CID; 91.3% (range, 89.5%-92.6% in 5 different donors) of GFP^+ cells were eliminated after a single 10-nM dose of CID. […] In all experiments, CTLs that survived CID treatment had low transgene expression with a 70% (range, 55%-82%) reduction in mean fluorescence intensity of GFP after CID. No further elimination of the surviving GFP^+ T cells could be obtained by an antigenic stimulation followed by a second 10-nM dose of CID. Therefore, the non-responding CTLs most likely expressed insufficient iCasp9M for functional activation by CID. To investigate the correlation between low levels of expression and CTL non-response to CID, CTLs were sorted for low, intermediate, and high expression of the linked marker gene GFP and mixed 1:1 with nontransduced CTLs from the same donor to allow for an accurate quantitation of the number of transduced T cells responding to CID-induced apoptosis.
The number of transduced T cells eliminated increased with the level of GFP transgene expression (see FIGS. 4A, 4B and 4C). To determine the correlation between transgene expression and function of iCasp9M, iCasp9M IRES.GFP-transduced EBV-CTL were selected for low (mean 21), intermediate (mean 80) and high (mean 189) GFP expression. Selected T-cells were incubated overnight with 10 nM CID and subsequently stained with annexin V and 7-AAD. Indicated are the percentages of annexin V+/7-AAD− and annexin V+/7-AAD+ T−. Selected T-cells were mixed 1:1 with non-transduced T-cells and incubated with 10 nM CID following antigenic stimulation. Indicated is the percentage of residual GFP-positive T-cells on day 7.
For GFPhigh-selected cells, 10 nM CID led to deletion of 99.1% (range, 98.7%-99.4%) of transduced cells. On the day of antigen stimulation, F-Casp9M.I.GFP-transduced CTLs were either untreated or treated with 10 nM CID. Seven days later, the response to CID was measured by flow cytometry for GFP. The percentage of transduced T cells was adjusted to 50% to allow for an accurate measurement of residual GFP^+ cells after CID treatment. The responses to CID in unselected (top row of and GFPhigh-selected CTLs (bottom row of was compared. The percentage of residual GFP^+ cells is indicated.
After overnight incubation with 10 nM CID, F-Casp9M.I.GFPhigh-transduced T cells had apoptotic characteristics such as cell shrinkage and fragmentation by microscopic evaluation. […] A representative example of 3 separate experiments is shown.

Data set [2] has as its system transduced T cells. Nature of the data set: T cell caspase assay (IncuCyte, caspase 3/7 green reagent). The protocol: To enable detection of apoptosis using the IncuCyte instrument, 2 μM of IncuCyte™ Kinetic Caspase-3/7 Apoptosis reagent (Essen Bioscience, 4440) were add to each well to reach a total volume of 200 μl. The plates were centrifuged for 5 min at 400×g and placed inside the IncuCyte (Dual Color Model 4459) to monitor green fluorescence every 2-3 hours for a total of 48 hours at 10× objective. Image analysis was performed using the “Tcells_caspreagent_phase_green_10×_MLD” processing definition. The “Total Green Object Integrated Intensity” metric is used to quantify caspase activation. Each condition was performed in duplicates and each well was imaged at 4 different locations.
To enable detection of apoptosis using the IncuCyte instrument, 2 μM of IncuCyte™ Kinetic Caspase-3/7 Apoptosis reagent (Essen Bioscience, 4440) was added to each well to reach a total volume of 200 μl. The plates were centrifuged for 5 min at 400×g and placed inside the IncuCyte (Dual Color Model 4459) to monitor green fluorescence every 2-3 hours for a total of 48 hours at 10× objective. Image analysis was performed using the “Tcells_caspreagent_phase_green_10×_MLD” processing definition. The “Total Green Object Integrated Intensity” metric and the “Phase Object Confluence (Percent)” were used to quantify caspase activation. Each condition was performed in duplicate and each well was imaged at 4 different locations.

The subject of data set [3] is HEK293T/16 cells. Nature of the data set: Secreted alkaline phosphatase (SEAP)-based surrogate killing assay of iCasp9 mutants. Conditions: for basal activity: relative SEAP activity Units: no AP1903; for Basal Activity (relative to wild type/unmodified Caspase-9): SEAP assay without AP1903.
The test system of data set [4] is primary T cells. Nature of the data set: AP1903-dependent cytotoxicity in primary T cells transduced with iCasp9 variants. The protocol:
The effects of various caspase polypeptides at mostly single copy in primary T cells was assayed. This may reflect more accurately how these suicide genes will be used therapeutically.
Primary T cells from healthy donors (n=6) were transduced with retrovirus encoding mutant or wild-type iCasp9 or iCasp9-D330A, and the ΔCD19 cell surface marker. Following transduction, iCasp9-transduced T cells were purified using CD19-microbeads and a magnetic column.

“Also recorded” adds a separate entry of the source. Where a SMILES comes first, the peptide text is derived from it. Where no end group is shown, it is not given here. The star is where a group is joined. Cbz = O=C(OCc1ccccc1)*; CH2F = FC*

As to `COC(=O)C[C@H](NC(=O)[C@H](C)NC(=O)[C@@H](NC(=O)OCc1ccccc1)C(C)C)C(=O)CF` [zVAD-fmk] (Cbz-Val-Ala-Asp(OMe)-CH2F), the “effect on CID-induced apoptosis” value in data set [1] is “inhibited”.

For the molecule Q-LEHD-OPh (QLEHD-OPh), the “level not toxic to the T cells” value in data set [2] is above 100 µM. The “concentration efficiently inhibiting caspase-9 activation by iC9 and iRC9” value in data set [2] (20 nM of the respective activating ligands) is at most 4 µM.

B1: N405Q: modified iCasp9, N405Q (SEQ ID NO: 26) (protein)
chain: GFGDVGALESLRGNADLAYILSMEPCGHCLIINNVNFCRESGLRTRTGSNIDCEKLRRRFSSLHFMVEVKGDLTAKKMVLALLELARQDHGALDCCVVVILSHGCQASHLQFPGAVYGTDGCPVSVEKIVNIFNGTSCPSLGGKPKLFFIQACGGEQKDHGFEVASTSPEDESPGSNPEPDATPFQEGLRTFDQLDAISSLPTPSDIFVSYSTFPGFVSWRDPKSGSWYVETLDDIFEQWAHSEDLQSLLLRVANAVSVKGIYKQMPGCFQFLRKKLFFKTS
As to B1, the figures for the “basal activity: relative SEAP activity Units” value in data set [3] (1 μg iCasp9 per million cells) and in data set [3] (2 μg iCasp9 per million cells) were 179081 Units and 175529 Units, respectively. The “Basal Activity (relative to wild type/unmodified Caspase-9)” value in data set [3] is given as “lower basal signaling; also recorded: lowered basal activity; also recorded: consistently lower basal activity; also recorded: lower basal activity than D330A; also recorded: very low basal activity; also recorded: Decreased”. In data set [4] (AP1903 at day 0 and day 4), the “killing of target T cells within 10 days” value is given as “indistinguishable from wild type”. In data set [4] (mostly single copy, 24-hour assay), the “sensitivity to AP1903 in primary T cells” value is given as “less sensitive to AP1903”.

B2: D330A-Y153F: modified iCasp9 double mutant (protein, UniProt P55211 1-416, looked up, variant D330A Y153F)
chain: MDEADRRLLRRCRLRLVEELQVDQLWDALLSRELFRPHMIEDIQRAGSGSRRDQARQLIIDLETRGSQALPLFISCLEDTGQDMLASFLRTNRQAAKLSKPTLENLTPVVLRPEIRKPEVLRPETPRPVDIGSGGFGDVGALESLRGNADLAFILSMEPCGHCLIINNVNFCRESGLRTRTGSNIDCEKLRRRFSSLHFMVEVKGDLTAKKMVLALLELAQQDHGALDCCVVVILSHGCQASHLQFPGAVYGTDGCPVSVEKIVNIFNGTSCPSLGGKPKLFFIQACGGEQKDHGFEVASTSPEDESPGSNPEPDATPFQEGLRTFDQLAAISSLPTPSDIFVSYSTFPGFVSWRDPKSGSWYVETLDDIFEQWAHSEDLQSLLLRVANAVSVKGIYKQMPGCFNFLRKKLFFKTS
modifications: FKBP12-F36V fusion (iCasp9), CARD deleted
notes: modified iCasp9 double mutant
B2: the “Basal Activity (relative to wild type/unmodified Caspase-9)” value in data set [3] is “dead”.

B3: ^402GCFNF^406QPTFT: modified iCasp9, residues 402-406 replaced by Caspase-8 QPTFT (protein, UniProt P55211 1-416, looked up, variant G402Q C403P F404T N405F F406T)
chain: MDEADRRLLRRCRLRLVEELQVDQLWDALLSRELFRPHMIEDIQRAGSGSRRDQARQLIIDLETRGSQALPLFISCLEDTGQDMLASFLRTNRQAAKLSKPTLENLTPVVLRPEIRKPEVLRPETPRPVDIGSGGFGDVGALESLRGNADLAYILSMEPCGHCLIINNVNFCRESGLRTRTGSNIDCEKLRRRFSSLHFMVEVKGDLTAKKMVLALLELAQQDHGALDCCVVVILSHGCQASHLQFPGAVYGTDGCPVSVEKIVNIFNGTSCPSLGGKPKLFFIQACGGEQKDHGFEVASTSPEDESPGSNPEPDATPFQEGLRTFDQLDAISSLPTPSDIFVSYSTFPGFVSWRDPKSGSWYVETLDDIFEQWAHSEDLQSLLLRVANAVSVKGIYKQMPQPTFTLRKKLFFKTS
modifications: FKBP12-F36V fusion (iCasp9), CARD deleted
notes: modified iCasp9, residues 402-406 replaced by Caspase-8 QPTFT
B3: the “Basal Activity (relative to wild type/unmodified Caspase-9)” value in data set [3] is given as “dead”.

B4: D330A-T317E: modified iCasp9 double mutant (protein, UniProt P55211 1-416, looked up, variant D330A T317E)
chain: MDEADRRLLRRCRLRLVEELQVDQLWDALLSRELFRPHMIEDIQRAGSGSRRDQARQLIIDLETRGSQALPLFISCLEDTGQDMLASFLRTNRQAAKLSKPTLENLTPVVLRPEIRKPEVLRPETPRPVDIGSGGFGDVGALESLRGNADLAYILSMEPCGHCLIINNVNFCRESGLRTRTGSNIDCEKLRRRFSSLHFMVEVKGDLTAKKMVLALLELAQQDHGALDCCVVVILSHGCQASHLQFPGAVYGTDGCPVSVEKIVNIFNGTSCPSLGGKPKLFFIQACGGEQKDHGFEVASTSPEDESPGSNPEPDAEPFQEGLRTFDQLAAISSLPTPSDIFVSYSTFPGFVSWRDPKSGSWYVETLDDIFEQWAHSEDLQSLLLRVANAVSVKGIYKQMPGCFNFLRKKLFFKTS
modifications: FKBP12-F36V fusion (iCasp9), CARD deleted
notes: modified iCasp9 double mutant
With B4, in data set [3], the “Basal Activity (relative to wild type/unmodified Caspase-9)” value is recorded as “dead”.

B5: S144A: modified iCasp9, S144A (protein)
chain: VDGFGDVGALEALRGNADLAYILSMEPCGHCLIINNVNFCRESGLRTRTGSNIDCEKLRRRFSSLHFMVEVKGDLTAKKMVLALLELARQDHGALDCCVVVILSHGCQASHLQFPGAVYGTDGCPVSVEKIVNIFNGTSCPSLGGKPKLFFIQACGGEQKDHGFEVASTSPEDESPGSNPEPDATPFQEGLRTFDQLDAISSLPTPSDIFVSYSTFPGFVSWRDPKSGSWYVETLDDIFEQWAHSEDLQSLLLRVANAVSVKGIYKQMPGCFNFLRKKLFFKTSASRA
Turning to B5, the “Basal Activity (relative to wild type/unmodified Caspase-9)” value in data set [3] is on record as “Decreased”.

B6: S144D: modified iCasp9, S144D (protein)
chain: VDGFGDVGALEDLRGNADLAYILSMEPCGHCLIINNVNFCRESGLRTRTGSNIDCEKLRRRFSSLHFMVEVKGDLTAKKMVLALLELARQDHGALDCCVVVILSHGCQASHLQFPGAVYGTDGCPVSVEKIVNIFNGTSCPSLGGKPKLFFIQACGGEQKDHGFEVASTSPEDESPGSNPEPDATPFQEGLRTFDQLDAISSLPTPSDIFVSYSTFPGFVSWRDPKSGSWYVETLDDIFEQWAHSEDLQSLLLRVANAVSVKGIYKQMPGCFNFLRKKLFFKTSASRA
Consider B6, for which the “Basal Activity (relative to wild type/unmodified Caspase-9)” value in data set [3] is listed as “Decreased”.

B7: S196D: modified iCasp9, S196D (protein)
chain: VDGFGDVGALESLRGNADLAYILSMEPCGHCLIINNVNFCRESGLRTRTGSNIDCEKLRRRFSDLHFMVEVKGDLTAKKMVLALLELARQDHGALDCCVVVILSHGCQASHLQFPGAVYGTDGCPVSVEKIVNIFNGTSCPSLGGKPKLFFIQACGGEQKDHGFEVASTSPEDESPGSNPEPDATPFQEGLRTFDQLDAISSLPTPSDIFVSYSTFPGFVSWRDPKSGSWYVETLDDIFEQWAHSEDLQSLLLRVANAVSVKGIYKQMPGCFNFLRKKLFFKTSASRA
On to B7, for which the “Basal Activity (relative to wild type/unmodified Caspase-9)” value in data set [3] is on record as “Decreased”.
